The record followed here is the DeepSol protein solubility set.

This data set can be described thus: soluble on expression in E. coli; label from the status in PepcDB or PDB records.
Consider “MKAVGLVVEYNPFHNGHLYHAQTAKLQTGCDTAVAVMSGHFLQRGEPAVVSKWARTKMALQSGVDLVIELPYLYAVQKADIFARGSVSILNELECEALFFGSENGDIKPFLETAQLIDEHKHILNDRIKEELKKGASYPAAAAIAFSSILHTESALDLSKPNNILGYQYVTSILTGGYPMKPYTTARISSDYHDADLPEGENHIASATSIRKAMIGQNLEACLRFLPAASARELAAYRKSFGLWHTPESYFSYLKYSLSTVTARELQQVYEVEEGLEHRIIRSIRKSSSYQEFMELLKTKRYTWTRLQRMNTHILTRTKKQDMQKLLDNDKAPYIRLLGMTKKGQAYLSEKKKALSVPLVSKLSSFSHPALDLDVKASRIYSLPIEEPLRTEFDLQEYG”, for which the “soluble on expression in E. coli” value is “not soluble”.

As to “GPGSMFILADQLALPLPRSPLFFDVFDFSLEHTAMSQEAGCDTKGGGSTVTSVTAGTSGKHEETPVVTEDSSFVYACRLCRRILFTHEEIMPHSADSSSKGPKAFGRRGAPKQQSDQQNAGVCTSYFLNPDVSIWVAAESREAHCESGGTSVLPDTVYCPNNSCSAKIGTQSWVGSQCSCGVWVTPAFKIHGRAVDKLQSQ”, the “soluble on expression in E. coli” value is listed as “not soluble”.

“MPVKPASPRSHPGCPELTHERYCDAQAKAEDARYRKYQRDPKINRRYGSRWRKIRAAYVAAHPLCEDCLEAGRYTPVQEVHHVLPIEHGGTHNFDNLQSLCKPCHSRQSALDDDRWRQQPRVYTYLEHHHHHH”: the “soluble on expression in E. coli” value is given as “soluble”.

For “MPTYKLSYFDVRAYAEPARILFHLAGVPFDDHRFPHGDGTWEKLKDKTPFGQVPVLYVDGFEIPQSAAIIRYLANKFGYAGKTPEEQAWADAIVDQFKDFMSLFREFKLAQKAGKSDVEIAKVASEVAIPARDSYFEIITNLLEKSKSGFLVGDGLTFADIVVVESLTNLEKVHFFDASEHPKLAALREKIYAIPAIKSWVDIRPDTIY”, the “soluble on expression in E. coli” value is listed as “not soluble”.

For the sequence “MLKRLGIVGFGASAIGFINGLIESGKVKDYRITVLERGKDYSHNTISGVRMDGKIFISHGMGGEIYIPLEIQAKTVEFYLKFSGYTPTVDKRVGIVNYLKSFERDGRKIEFGESFSDEEIYKRFYHHGFEPVKSYFFHLGTDILKETNKNIYEYFSSFENIEFLFGTTVEDVEFGPPHRVHTNRGDFEFDELVIAVGRSGHRLMERLKEKYPQLVRPNQFVDIGVRYELPNHVMDPFSDMYEVKVRYRTKTGYICRIFCQNPAGKVTLEKYEDFTTVNGYSDSLHKTENTNFAILVTTRFTEPFKDPTGYGVNLAKLANILAGDKEKVILQTYGDFKEFRRTKRLGRVHPTLDSESYILGDANLVFPSKIRESLVDFVENLEKVIPGASYFDNLLYAVEVKFYTNKFLNDIVEGLHVVGDCSGWTRSIQYATSMGYMRAVGMKIQSLLEHHHHHH”, the “soluble on expression in E. coli” value is given as “not soluble”.

Take “MGSDKIHHHHHHMDTLIRRYKRLLTATSTTYIRSLMDTINWDNRLIAIRGARGVGKTTLMLQYLKLHYANDSQSALYTSLDSLYFTQHTLSELAEQFYLKGGKCLFLDEVHKYPSWSKEIKNIYDEFPELKIVFTGSSLLQLLNAEADLSRRCISYNMQGLSYREYLKLFHQIHIRPYTLEEILESSDGICNEVNSQCRPLAHFEDYLKHGYYPFYLEGNAEYYTRIENITNLILEIELPQQCGVDISNVRKLKSLLGILSSEVPFMVDITKLSALAELSRTTILAYLQYLDRAKLIHLLYSDNDSIKKLQKPDKIYMENTNLLYALTFKDVNKGTLREVFMVNQLSYLHRVEYCTRSADYTIDSKYTIEVGGKSKDGKQIAGSKKAFIAADDIEYSAGNKIPLWAFGFLY”: the “soluble on expression in E. coli” value is listed as “not soluble”.

For “MSLHLNDQWVLCAPTDNFENKKEIFFTPQGAFGTGLHETTQDILKFIVEEDFEGKSLLDLGTGSGILSIAAGVKGASKIVAVDIRDVEDEVLLNASLNELENIEVVVGNVLHEEYKLNEKFDWIFINIGGEETAMFMDFIEEHIEKTGKLLVSGLVEWSFDWVKEKVENKGFKLNKKFQTNEWCTAIFSKEGHHHHHH”, the “soluble on expression in E. coli” value is reported as “soluble”.

“MAHHHHHHMNVALIFGITGQDGSYLSELLLEKGYTVHGVIRRCSSFNTKRIDHIFDQLNLHYGDVLDSSSICKLISKIKPHEIYNLAAQSHVKVSFELPVYTAETTAVGTLRILEAIKISNLPDVKFYNASTSELFGSSTDDRQHESTPFNPVSPYAIAKLYSHYITICYRKSYQMFCVNGILFNHESPRRGETFVTRKITRGVANICKNRQNCLVLGDLSTYRDWGHAKDYVRAMYLMLQQDEPDDFVISSNEKHTVKEFCEISFSFVGIFLKWKGTGIQEVGVDQHDRVLIKKDPRYYRECDVFHLHGDSSKARQKLQWAPTYSFFQLIYEMLTYDFEQCSLPIDDFDTCVSRYENYRGVPTK”: the “soluble on expression in E. coli” value is reported as “not soluble”.

As for “TDLSQRPRRLRKSPALRAMFEETTLSLNDLVLPIFVEEEIDDYKAVEAMPGVMRIPEKHLAREIERIANAGIRSVMTFGISHHTDETGSDAWREDGLVARMSRICKQTVPEMIVMSDTCFCEYTSHGHCGVLKEHGVDNDATLENLGKQAVVAAAAGADFIAPSAAMDGQVQAIRQALDAAGFKDTAIMSYSTKFASSFYGPFREAAGSALKGDRKSYQMNPMNRREAIRESLLDEAQGADCLMVKPAGAYLDIVRELRERTELPIGAYQVSGEYAMIKFAALAGAIDEEKVVLESLGSIKRAGADLIFSYFALDLAEKKILR”, the “soluble on expression in E. coli” value is on record as “soluble”.

Consider “MGSDKIHHHHHHMLCSVIQRQTREVSNTMSLDSYYLGFDLSTQQLKCLAINQDLKIVHSETVEFEKDLPHYHTKKGVYIHGDTIECPVAMWLEALDLVLSKYREAKFPLNKVMAVSGSCQQHGSVYWSSQAESLLEQLNKKPEKDLLHYVSSVAFARQTAPNWQDHSTAKQCQEFEECIGGPEKMAQLTGSRAHFRFTGPQILKIAQLEPEAYEKTKTISLVSNFLTSILVGHLVELEEADACGMNLYDIRERKFSDELLHLIDSSSKDKTIRQKLMRAPMKNLIAGTICKYFIEKYGFNTNCKVSPMTGDNLATICSLPLRKNDVLVSLGTSTTVLLVTDKYHPSPNYHLFIHPTLPNHYMGMICYCNGSLARERIRDELNKERENNYEKTNDWTLFNQAVLDDSESSENELGVYFPLGEIVPSVKAINKRVIFNPKTGMIEREVAKFKDKRHDAKNIVESQALSCRVRISPLLSDSNASSQQRLNEDTIVKFDYDESPLRDYLNKRPERTFFVGGASKNDAIVKKFAQVIGATKGNFRLETPNSCALGGCYKAMWSLLYDSNKIAVPFDKFLNDNFPWHVMESISDVDNENWDRYNSKIVPLSELEKTLI”, for which the “soluble on expression in E. coli” value was “not soluble”.

For the sequence “MSLSQSLWQRLFNHRQQTKQAVLILGSGRSGTSVMTKCVNLMGISLGTDNLLAPSKRINPKGYFENKDVINIHKSLGSRIRYRPAFKDYYDSPKIKKDRAALTTYLRNFFENEQYLAIKDPRMNDYIELWQRVLADVEVQPAEIVLLRNPMDVVNSNERAWHRDTTLAMRQWQVRTLLSLRDTDREHRILVTYEDLFGQTLTTLKRIATQFNLPWTSDEAALQAQIDDFIDPALQKSDSGENLADFEARTDVKPDVKALYLLGRQAAADPDYFASAEFQQRIDEMTDEYLAKYGALYRDFNEGHHHHHH”, the “soluble on expression in E. coli” value was “soluble”.

For “FCNAFTPVKAKEVKALILDFLHTNKITLQREIESSFITSAIIAHTGIDAFSISLLLDKNK”, the “soluble on expression in E. coli” value is on record as “not soluble”.

With “MGRLDGKVIILTAAAQGIGQAAALAFAREGAKVIATDINESKLQELEKYPGIQTRVLDVTKKKQIDQFANEVERLDVLFNVAGFVHHGTVLDCEEKDWDFSMNLNVRSMYLMIKAFLPKMLAQKSGNIINMSSVASSVKGVVNRCVYSTTKAAVIGLTKSVAADFIQQGIRCNCVCPGTVDTPSLQERIQARGNPEEARNDFLKRQKTGRFATAEEIAMLCVYLASDESAYVTGNPVIIDGGWSLG”, the “soluble on expression in E. coli” value is listed as “soluble”.

With “SASHIVGYPRMGPKRELKFALESFWDGKSSAEDLEKVATDLRASIWKQMADAGIKYIPSNTFSYYDQVLDTTAMLGAVPGRYSWTGGEIGFSTYFSMARGNATVPAMEMTKWFDTNYHFIVPELGPNTKFSYSSHKAVNEYKEAKALGVDTVPVLVGPVSYLLLSKPAKGVEKSFALLSLLSSILPVYKEVIAELKAAGATWIQFDEPTLVLDLDSHQLAAFSAAYTELESALSGLNVLIETYFADIPAESYKTLTSLNSVTAYGFDLIRGSKTLDLVKSAGFPSGKYLFAGVVDGRNIWADDLAASLTTLESLEAIVGKDKLVVSTSCSLMHTAVDLVNETKLDSEIKSWLAFAAQKVVEVNALAKALAGQKDEAYFAANTAAQASRRSSPRVTNEEVQKAAAALRGSDHRRATNVSARLDAQQKKLNLPVLPTTTIGSFPQTVELRRVRREYKAKKISEDEYVSAIKEEISKVVKIQEELDIDVLVHGEPERNDMVEYFGEQLSGFAFTANGWVQSYGSRCVKPPIIYGDVSRPNAMTVFWSKMAQSMTSRPMKGMLTGPVTILNWSFVRNDQPRFETCYQIALAIKKEVEDLEAGGIQVIQIDEAALREGLPLRKAEHAFYLDWAVHSFRITNCGVQDTTQIHTHMCYSNFNDIIHSIINMDADVITIENSRSDEKLLSVFREGVKYGAGIGPGVYDIHSPRIPSTEEIADRINKMLAVLDTNILWVNPDCGLKTRKYTEVKPALTNMVLAAKLIRTQLASAK”, the “soluble on expression in E. coli” value is “soluble”.

In the case of “MAEHRGGSGNFAEDREKASDAGRKGGQHSGGNFKNDPQRASEAGKKGGQQSGGNKSGKS”, the “soluble on expression in E. coli” value is recorded as “soluble”.

Turning to “RHQNYGVPWTPGETRQVWDVEARIEFNANGNEVKASLAAPHTQSGYTLIGESASSSGYGVSYINSDSGRRAEWSIRQAKGPQTIYYKAQFLVDPQAKVEPLPPAGDITPPTLSAPQQAAASALIDQAMSRSADNVTFARELIKTLNDPDSQNSALLLNDFDRTDALHKILLSAGVQSKIVGVIELEDGRRRQTIQPMVQVWSGKDWVLFSPNSEQKAVKPNLLVWDESNVSLLDLVGGKNSQVHFSMIKQEVTPQQATNNKVEADGLLNLSIHSLPLEEQAMFK”, the “soluble on expression in E. coli” value is on record as “soluble”.

In the case of “MDDLPYLARGVMPVETPSSVLVSSSKYLNNPRLREWLAMILLRKNGPDFPPPAEMYEFLPILEELRDHDRIEAMFAEERRVNPELDAWLSEGFYSTYAIEDFRQFAPGTLGGIFYQWITEGNYEIQITPWREPKSQLEFYNLRSGQTHDFEHILCGGGFNFMGELVPYWYRLTNVFKHIRNQELAAELSMIQIFGSLRYTVRTMLHYPQIWMTCVDAIQRGMKVGQESDALFMKKLEPHFHLPLEEARAALGVRGAVDVDTEIEGAFWAGRAPLSALTERIAAELEHHHHHH”, the “soluble on expression in E. coli” value is recorded as “soluble”.

In the case of “MNIEEIKIMGGFNKFGESEKVKELVVKRGEIFGVVGPTGSGKSNLISDIEQLAQGDTPSNRKILVNGNVPDTEMRRDPRKRRIAQLSQNMNFLADMTVEEFLIMHAKSRGMNSEGIVDKVIKLANNLTGEPIEKDYNLTILSGGQSRSLMVADVAVISDSPIVLIDEIENAGIKKHEALELLAGCGKIVMVITHDPVLALMTTRRVVMRNGGMNEIIETTE”, the “soluble on expression in E. coli” value is listed as “not soluble”.

In the case of “MAQGLIEVERKFAPGPDTEERLQELGATLEHRVTFRDTYYDTSELSLMLSDHWLRQREGSGWELKCPGVTGVSGPHNEYVEVTSEAAIVAQLFELLGSGEQKPAGVAAVLGSLKLQEVASFITTRSSWKLALSGAHGQEPQLTIDLDSADFGYAVGEVEAMVHEKAEVPAALEKIITVSSMLGVPAQEEAPAKLMVYLQRFRPLDYQRLLEAASSGEATGDSAS”, the “soluble on expression in E. coli” value is “soluble”.

Turning to “MNNKEKGDFGEKVAVNYLLSKGAKILEKNYRLKIGEIDIIAKMEDEIIFVEVKSRSNIKFGYPCESVSFKKRKKIIGVASYYIIKNNLNNTPIRFDVIEVYLLEKRINHIMNAF”, the “soluble on expression in E. coli” value is given as “not soluble”.
